# Data as given in patent publication US10646600B2, “HER2 polypeptides useful for imaging and monitoring tumors and cancers” (GE HEALTHCARE LIMITED, priority 2013, dated 2020).
# “Also recorded” adds a separate entry of the source.
# What was measured:
# Type in all cases: in vivo, mice
# Biodistribution, tissues = experiment: Biodistribution, tissues
# Description: (§1) Mice were sacrificed at different time points by exsanguination.
# MCF7-p95HER2 = experiment: Biodistribution, MCF7-p95HER2 tumor; settings: 60 min
# Description: as §1
# SKOV-3 = experiment: Biodistribution, SKOV-3 tumor
# Description: as §1
substance,measurement,setting,value
[^18F]GE-226: HER2-binding 18F-radiolabelled Affibody molecule ZHER2:2891,"Tissue uptake, Blood","Biodistribution, tissues; 5 min",0.82 ± 0.83 % ID/g tissue
same,"Tissue uptake, Bone","Biodistribution, tissues; 5 min",1.20 ± 1.08 % ID/g tissue
same,"Tissue uptake, Brain","Biodistribution, tissues; 5 min",0.33 ± 0.35 % ID/g tissue
same,"Tissue uptake, Caecum empty","Biodistribution, tissues; 5 min",3.24 ± 3.76 % ID/g tissue
same,"Tissue uptake, Caecum full","Biodistribution, tissues; 5 min",0.97 ± 1.09 % ID/g tissue
same,"Tissue uptake, Colon empty","Biodistribution, tissues; 5 min",2.68 ± 2.44 % ID/g tissue
same,"Tissue uptake, Colon full","Biodistribution, tissues; 5 min",2.40 ± 2.53 % ID/g tissue
same,"Tissue uptake, Duodenum empty","Biodistribution, tissues; 5 min",3.21 ± 3.50 % ID/g tissue
same,"Tissue uptake, Duodenum full","Biodistribution, tissues; 5 min",2.55 ± 2.17 % ID/g tissue
same,"Tissue uptake, Gallbladder","Biodistribution, tissues; 5 min",3.22 ± 3.29 % ID/g tissue
same,"Tissue uptake, Heart","Biodistribution, tissues; 5 min",3.10 ± 2.83 % ID/g tissue
same,"Tissue uptake, Jejunum empty","Biodistribution, tissues; 5 min",2.48 ± 2.81 % ID/g tissue
same,"Tissue uptake, Jejunum full","Biodistribution, tissues; 5 min",1.68 ± 1.38 % ID/g tissue
same,"Tissue uptake, Kidney","Biodistribution, tissues; 5 min",15.02 ± 6.99 % ID/g tissue
same,"Tissue uptake, Liver","Biodistribution, tissues; 5 min",2.90 ± 2.96 % ID/g tissue
same,"Tissue uptake, Lung","Biodistribution, tissues; 5 min",3.90 ± 3.84 % ID/g tissue
same,"Tissue uptake, Muscle","Biodistribution, tissues; 5 min",0.88 ± 0.81 % ID/g tissue
same,"Tissue uptake, Plasma","Biodistribution, tissues; 5 min",12.71 ± 14.90 % ID/g tissue
same,"Tissue uptake, Spleen","Biodistribution, tissues; 5 min",3.18 ± 2.66 % ID/g tissue
same,"Tissue uptake, Stomach empty","Biodistribution, tissues; 5 min",2.02 ± 1.62 % ID/g tissue
same,"Tissue uptake, Stomach full","Biodistribution, tissues; 5 min",1.47 ± 1.85 % ID/g tissue
same,"Tissue uptake, Urine","Biodistribution, tissues; 5 min",148.33 ± 127.65 % ID/g tissue
same,"Tissue uptake, Blood","Biodistribution, tissues; 15 min",2.00 ± 0.75 % ID/g tissue
same,"Tissue uptake, Bone","Biodistribution, tissues; 15 min",3.05 ± 0.88 % ID/g tissue
same,"Tissue uptake, Brain","Biodistribution, tissues; 15 min",0.34 ± 0.11 % ID/g tissue
same,"Tissue uptake, Caecum empty","Biodistribution, tissues; 15 min",4.94 ± 2.84 % ID/g tissue
same,"Tissue uptake, Caecum full","Biodistribution, tissues; 15 min",1.68 ± 0.85 % ID/g tissue
same,"Tissue uptake, Colon empty","Biodistribution, tissues; 15 min",5.78 ± 2.99 % ID/g tissue
same,"Tissue uptake, Colon full","Biodistribution, tissues; 15 min",3.43 ± 1.89 % ID/g tissue
same,"Tissue uptake, Duodenum empty","Biodistribution, tissues; 15 min",5.16 ± 2.36 % ID/g tissue
same,"Tissue uptake, Duodenum full","Biodistribution, tissues; 15 min",4.07 ± 1.48 % ID/g tissue
same,"Tissue uptake, Gallbladder","Biodistribution, tissues; 15 min",5.10 ± 1.77 % ID/g tissue
same,"Tissue uptake, Heart","Biodistribution, tissues; 15 min",3.52 ± 1.19 % ID/g tissue
same,"Tissue uptake, Jejunum empty","Biodistribution, tissues; 15 min",4.92 ± 1.33 % ID/g tissue
same,"Tissue uptake, Jejunum full","Biodistribution, tissues; 15 min",2.71 ± 1.01 % ID/g tissue
same,"Tissue uptake, Kidney","Biodistribution, tissues; 15 min",65.82 ± 18.48 % ID/g tissue
same,"Tissue uptake, Liver","Biodistribution, tissues; 15 min",4.58 ± 1.77 % ID/g tissue
same,"Tissue uptake, Lung","Biodistribution, tissues; 15 min",5.99 ± 2.10 % ID/g tissue
same,"Tissue uptake, Muscle","Biodistribution, tissues; 15 min",2.05 ± 0.86 % ID/g tissue
same,"Tissue uptake, Plasma","Biodistribution, tissues; 15 min",9.41 ± 3.75 % ID/g tissue
same,"Tissue uptake, Spleen","Biodistribution, tissues; 15 min",3.94 ± 3.24 % ID/g tissue
same,"Tissue uptake, Stomach empty","Biodistribution, tissues; 15 min",3.75 ± 1.38 % ID/g tissue
same,"Tissue uptake, Stomach full","Biodistribution, tissues; 15 min",2.68 ± 1.04 % ID/g tissue
same,"Tissue uptake, Urine","Biodistribution, tissues; 15 min",283.73 ± 243.00 % ID/g tissue
same,"Tissue uptake, Blood","Biodistribution, tissues; 30 min",0.53 ± 0.35 % ID/g tissue
same,"Tissue uptake, Bone","Biodistribution, tissues; 30 min",1.59 ± 0.94 % ID/g tissue
same,"Tissue uptake, Brain","Biodistribution, tissues; 30 min",0.13 ± 0.08 % ID/g tissue
same,"Tissue uptake, Caecum empty","Biodistribution, tissues; 30 min",1.92 ± 0.89 % ID/g tissue
same,"Tissue uptake, Caecum full","Biodistribution, tissues; 30 min",0.60 ± 0.27 % ID/g tissue
same,"Tissue uptake, Colon empty","Biodistribution, tissues; 30 min",1.80 ± 0.94 % ID/g tissue
same,"Tissue uptake, Colon full","Biodistribution, tissues; 30 min",1.00 ± 0.59 % ID/g tissue
same,"Tissue uptake, Duodenum empty","Biodistribution, tissues; 30 min",2.91 ± 1.27 % ID/g tissue
same,"Tissue uptake, Duodenum full","Biodistribution, tissues; 30 min",2.87 ± 1.18 % ID/g tissue
same,"Tissue uptake, Gallbladder","Biodistribution, tissues; 30 min",2.74 ± 1.06 % ID/g tissue
same,"Tissue uptake, Heart","Biodistribution, tissues; 30 min",1.27 ± 0.60 % ID/g tissue
same,"Tissue uptake, Jejunum empty","Biodistribution, tissues; 30 min",1.87 ± 1.12 % ID/g tissue
same,"Tissue uptake, Jejunum full","Biodistribution, tissues; 30 min",1.73 ± 1.25 % ID/g tissue
same,"Tissue uptake, Kidney","Biodistribution, tissues; 30 min",23.54 ± 11.70 % ID/g tissue
same,"Tissue uptake, Liver","Biodistribution, tissues; 30 min",2.27 ± 1.23 % ID/g tissue
same,"Tissue uptake, Lung","Biodistribution, tissues; 30 min",3.15 ± 1.84 % ID/g tissue
same,"Tissue uptake, Muscle","Biodistribution, tissues; 30 min",0.78 ± 0.48 % ID/g tissue
same,"Tissue uptake, Plasma","Biodistribution, tissues; 30 min",4.10 ± 2.23 % ID/g tissue
same,"Tissue uptake, Spleen","Biodistribution, tissues; 30 min",1.71 ± 0.90 % ID/g tissue
same,"Tissue uptake, Stomach empty","Biodistribution, tissues; 30 min",1.56 ± 0.86 % ID/g tissue
same,"Tissue uptake, Stomach full","Biodistribution, tissues; 30 min",1.28 ± 0.92 % ID/g tissue
same,"Tissue uptake, Urine","Biodistribution, tissues; 30 min",438.65 ± 219.01 % ID/g tissue
same,"Tissue uptake, Blood","Biodistribution, tissues; 60 min",0.32 ± 0.26 % ID/g tissue
same,"Tissue uptake, Bone","Biodistribution, tissues; 60 min",0.68 ± 0.40 % ID/g tissue
same,"Tissue uptake, Brain","Biodistribution, tissues; 60 min",0.10 ± 0.07 % ID/g tissue
same,"Tissue uptake, Caecum empty","Biodistribution, tissues; 60 min",0.87 ± 0.53 % ID/g tissue
same,"Tissue uptake, Caecum full","Biodistribution, tissues; 60 min",0.36 ± 0.22 % ID/g tissue
same,"Tissue uptake, Colon empty","Biodistribution, tissues; 60 min",1.25 ± 0.94 % ID/g tissue
same,"Tissue uptake, Colon full","Biodistribution, tissues; 60 min",0.84 ± 0.59 % ID/g tissue
same,"Tissue uptake, Duodenum empty","Biodistribution, tissues; 60 min",2.29 ± 2.29 % ID/g tissue
same,"Tissue uptake, Duodenum full","Biodistribution, tissues; 60 min",1.53 ± 0.59 % ID/g tissue
same,"Tissue uptake, Gallbladder","Biodistribution, tissues; 60 min",3.92 ± 3.29 % ID/g tissue
same,"Tissue uptake, Heart","Biodistribution, tissues; 60 min",0.64 ± 0.40 % ID/g tissue
same,"Tissue uptake, Jejunum empty","Biodistribution, tissues; 60 min",0.86 ± 0.46 % ID/g tissue
same,"Tissue uptake, Jejunum full","Biodistribution, tissues; 60 min",0.99 ± 0.39 % ID/g tissue
same,"Tissue uptake, Kidney","Biodistribution, tissues; 60 min",11.94 ± 10.30 % ID/g tissue
same,"Tissue uptake, Liver","Biodistribution, tissues; 60 min",1.64 ± 1.49 % ID/g tissue
same,"Tissue uptake, Lung","Biodistribution, tissues; 60 min",1.81 ± 1.32 % ID/g tissue
same,"Tissue uptake, Muscle","Biodistribution, tissues; 60 min",0.50 ± 0.45 % ID/g tissue
same,"Tissue uptake, Plasma","Biodistribution, tissues; 60 min",1.76 ± 1.06 % ID/g tissue
same,"Tissue uptake, Spleen","Biodistribution, tissues; 60 min",0.88 ± 0.56 % ID/g tissue
same,"Tissue uptake, Stomach empty","Biodistribution, tissues; 60 min",0.86 ± 0.72 % ID/g tissue
same,"Tissue uptake, Stomach full","Biodistribution, tissues; 60 min",0.53 ± 0.29 % ID/g tissue
same,"Tissue uptake, Urine","Biodistribution, tissues; 60 min",535.62 ± 303.04 % ID/g tissue
same,kidney radioactivity levels versus tumors,"Biodistribution, tissues; 60 min",comparable to levels in tumors
same,excretion / clearance,"Biodistribution, tissues; mouse, in vivo",predominately and rapidly excreted via the renal route; also recorded: rapid renal clearance
same,"uptake in other organs, including the liver","Biodistribution, tissues; mouse, in vivo",negligible
same,"Tissue uptake, MCF7-p95HER2",MCF7-p95HER2,6.55 ± 0.13 % ID/g tissue
same,"Tissue uptake, SKOV-3",SKOV-3; 60 min,17.35 ± 0.83 % ID/g tissue
same,tumor/muscle ratio,"SKOV-3; SKOV-3 tumor, 1 h",~60
